Experiment: soluble on expression in E. coli; label from the status in PepcDB or PDB records

Question: With “SNAMLFDEKEILAITRWAKLYANQSPDRILLGSNDIPPEYRAAVATQIELWPRLRNKLPQWAGISSLYIPSRLSLEQSSGAVTSSYKSRFIREGTKVVDLTGGLGIDFIALMSKASQGIYIERNDETAVAARHNIPLLLNEGKDVNILTGDFKEYLPLIKTFHPDYIYVDPARRSGADKRVYAIADCEPDLIPLATELLPFCSSILAKLSPMIDLWDTLQSLLHVQELHVVAAHGEVKELLVRMSLNEATIPPEKVPIHAINLLLEDTVIPFIFTMEEERSISIPYTDSIDKYVYEPHTALLKAGAFKTVAYRLGLRKLHPNSHLYTSEAYESAFPGRTFVLEEIIPFSTSVLKQLRKVVPQASISCRNFPLSPIELRQRSKMADGGEKTLMGTTMADGKKVLLLLRKAE” as the sequence, how does the “soluble on expression in E. coli” value read?
Answer: soluble

Question: With “SNAMQAIRSILVVIEPDQLEGLALKRAQLIAGVTQSHLHLLVCEKRRDHSAALNDLAQELREEGYSVSTNQAWKDSLHQTIIAEQQAEGCGLIIKQHFPDNPLKKAILTPDDWKLLRFAPCPVLMTKTARPWTGGKILAAVDVGNNDGEHRSLHAGIISHAYDIAGLAKATLHVISAHPSPMLSSADPTFQLSETIEARYREACRTFQAEYGFSDEQLHIEEGPADVLIPRTAQKLDAVVTVIGTVARTGLSGALIGNTAEVVLDTLESDVLVLKPDDIIAHLEELASKE” as the sequence, how does the “soluble on expression in E. coli” value read?
Answer: soluble

Question: For “SNAMQIVKKEKFILKEYTFENGRTIPVQMGYETYGTLNRERSNVILICHYFSATSHAAGKYTAHDEESGWWDGLIGPGKAIDTNQYFVICTDNLCNVQVKNPHVITTGPKSINPKTGDEYAMDFPVFTFLDVARMQCELIKDMGIARLHAVMGPSAGGMIAQQWAVHYPHMVERMIGVITNPQNPIITSVNVAQNAIEAIRLDPSWKGGKYGEEQPMKGLQLANRMMFMNAFDEHFYETTYPRNSIEVEPYEKVSSLTSFEKEINKLTYRSIELVDANSWMYTAKAVLLHDIAHGFSSLEEALSNVEANVLMIPCKQDLLQPSRYNYKMVDLLQKQGKYAEVYEIESINGHMAGVFDIHLFEKKVYEFLNRKVSSFV”, which “soluble on expression in E. coli” value is on record?
Answer: soluble

Question: With “SNAMSQKLYNMKFAAVYLALIAKVERKGGKAESVHQVTSWLTGYEVSDVLACLDRDVTYGDFFRQAPYYVPERIAITGKICGVRIEEIDDPLMQEIRRLDKLVDWLAKGKTSQQVLEKYEKHK” as the sequence, how does the “soluble on expression in E. coli” value read?
Answer: soluble

Question: Which “soluble on expression in E. coli” value does the source give for “SNAMTHIQLDFSKTLEFFGEHELKQQQEIVKSIHKTIHEGTGAGSDFLGWVDLPVDYDKEEFSRIVEASKRIKENSDVLVVIGIGGSYLGARAAIEMLTSSFRNSNEYPEIVFVGNHLSSTYTKELVDYLADKDFSVNVISKSGTTTEPAVAFRLFKQLVEERYGKEEAQKRIFATTDKEKGALKQLATNEGYETFIVPDDVGGRYSVLTAVGLLPIATAGINIEAMMIGAAKAREELSSDKLEENIAYQYATIRNILYAKGYTTEMLINYEPSMQYFNEWWKQLFGESEGKDFKGIYPSSANYTTDLHSLGQYVQEGRRFLFETVVKVNHPKYDITIEKDSDDLDGLNYLAGKTIDEVNTKAFEGTLLAHTDGGVPNMVVNIPQLDEETFGYVVYFFELACAMSGYQLGVNPFNQPGVEAYKQNMFALLGKPGFEDLKKELEERL” here?
Answer: soluble

Question: For “SNAPLKEQKVINTANIKTNSKLDLAEYENGLINIATQQFDTESHVLQLNQYIPEKLIDELVAKVEAPVLTNIIEQDYFGKQNSNELSLSGVMIGLAMSSSVSNEEAMSKGTEVAKQLIEAINKNDKYNKSPITFAIFKQESTSSLKNGTYIASATVQKNDTNLGNWSTIDEKSYSYPSDEFTQAHGEDNTKINNFAKEIKGFSNGDFIPVNAKVSYKKDQMDTLNMNIVIKYNGKTELMALTQLAAQGMLDKLPKDAKVQLQIKSESKIEAVIIKEKNSDKPFVSFL”, which “soluble on expression in E. coli” value is on record?
Answer: soluble

Question: With “SNDAGAKTENTVDASPTPTNTPTDGDGDSAEEPVENTPAEPEPRPTPVEPEAMKTSDKAGAIAAAQYFVEVIEHSMHTSTTDLLEKYSYEKCSMCNEYKRTIAKRKDNGILVTNSQYEIKDLGPASLWGKKQLIWEVMLNLSVKEEYENFDESYTTEHSLLFYVTYLPDGWVLTEVTPASKK” as the sequence, how does the “soluble on expression in E. coli” value read?
Answer: not soluble

Question: For “SNGAGLAADIQLQRDAKTPLALSAKLAEVFFRTGNPLAATLADWPGLLELGNGRATAAAGWKLDAAGGSSLDLDLTLKGLDGIYDRSELKGLGGSLALRLRGGQLSLDSPGLSLAEANPGLPLGPVSFRGRYEAPLSAPGSGRLSWQTLQSGLFGGQASVPAGSIRLGQAEQKFALRIQGIQLGEIFRVYPAEGLAGEGTLDGELPLMLNRWKPSVSGGQVKAREPGYLRFRSAKIEALGRSNPGMKLVADALDDFHYDVLQSSVDYHENGKLLLGLRLQGSNPDLEKGRPVNLNVNLEEDIPALLTSLQLSDRVSETIRQ”, which “soluble on expression in E. coli” value is on record?
Answer: not soluble

Question: Which “soluble on expression in E. coli” value does the source give for “SNSGEPAPVLSSPTPTDLSTFLSFPSPEKLLRLGPKVSVLIVQQTDTSDPEKVVSAFLKVASVFRDDASVKTAVLDAIDALMKKAFSCSSFNSNTFLTRLLIHMGLLKSEDKIKAIPSLHGPLMVLNHVVRQDYFPKALAPLLLAFVTKPNGALETCSFARHNLLQTLYNI” here?
Answer: soluble

Question: Which “soluble on expression in E. coli” value does the source give for “SNTGPYYFVKNLPLHELITPEFISTFIKKGKLILSLDKDTYEETGLQGHPSQFSGRKIMKFIVSIDLMELSLNLDSKKYERISWSFKEKKPLKFDFLLAWHKTGSEESTMMSYFSKYQIQEHQPKVALSTLRDLQCPVLQSSELEGTPEVSCRALELFDWLGAVFSNVDLNNEPNNFISTYCCPEPSTVVAKAYLCTITGFILPEKICLLLEHLCHYFDEPKLAPWVTLSVQGFADSPVSWEKK” here?
Answer: soluble

Question: For “SNVNIDSEQLFTEEKPKDYAQPEVLCHTFELLSNLHKLLPNRTVEVLHSYRSEEDKRKCEKPEFSGIEKILARHQLPKEINLSPKPSHVPSWKRKIINNISGNWKKCRLWQKSIYEPPMGTIIVRWTKKNLQPSEDLKSVIQRLSALGPIISVTPCGRESAVVVFRDAASACKAVSAFQTMSADSMFHCSWQHRFMSKNKTWSRRYPSKIHAEKKEKHP”, which “soluble on expression in E. coli” value is on record?
Answer: soluble

Question: Which “soluble on expression in E. coli” value does the source give for “SPAAVASALEGCREPVPGIRCRDAFSAASGIIDKMACVPELAVSEISAPRIVSSLAGDGHALFVANSMPARDMDLYAAPVAQKPLQVALNRGVSGIDGIISTAAGFSAGLGKPTTLLIGDISFLHDLNALCLLNHPWNPLIVIVLNNHGGSIFSFLPIASQTDRLDECFATPQNFSIESAARTFGIDYACPETNGDFTQLYAEALTTKKSLIIEIRSDREKNLLLHRSLKARLDPVFEKADC” here?
Answer: not soluble

Question: For “SPSETLWEIAKAEVEKRRSHGSEGDGAEIGEKSVFFIGSKNGGKTTIILRCLDRDESAKPTLALEYTYGRKTKGHNTPKDIAHFWELGGGTSLLDLISIPITVDTLRTFSIVLVLDLSKPNDLWSTMENLLQATKSHVDKVIMKLGKTSSKASAEMRQRMWSVVQKDHPDRELIDPFPIPLVIIGSKYDIFQDFDPEKRKVICKTLRFVAHYYGASLMFTSKSEALLLKIRGVINQLAFGIDKSKSICVDQNKPLFITAGLDSLCQIGSPPVPDSDIGKLQAHSPMELWKKVYDKLFPPKSTGTLKAVQDPARDPQYAESEVDEMRVQKDQELEHYKRSSSKTWKQIELDS”, which “soluble on expression in E. coli” value is on record?
Answer: soluble

Question: Which “soluble on expression in E. coli” value does the source give for “SPSYTVLGQLPDTDVYIDIDAYEEVKEIPGIKIFQINAPIYYANSDLYSSALKRKTGVNGSENIHTVILDFTQVNFMDSVGVKTLAGIVKEYGDVGIYVYLAGCSAQVVNDLTSNRFFENPALKELLFHSIHDAVLGSQVREA” here?
Answer: soluble

Question: For “SPTPVELHKVTLYKDSGMEDFGFSVADGLLEKGVYVKNIRPAGPGDLGGLKPYDRLLQVNHVRTRDFDCCLVVPLIAESGNKLDLVISRNP”, which “soluble on expression in E. coli” value is on record?
Answer: soluble

Question: For “SPVVVVTGASRGIGKAIALSLGKAGCKVLVNYARSAKAAEEVSKQIEAYGGQAITFGGDVSKEADVEAMMKTAIDAWGTIDVVVNNAGITRDTLLIRMKKSQWDEVIDLNLTGVFLCTQAATKIMMKKRKGRIINIASVVGLIGNIGQANYAAAKAGVIGFSKTAAREGASRNINVNVVCPGFIASDMTAKLGEDMEKKILGTIPLGRTGQPENVAGLVEFLALSPAASYITGQAFTIDGGIAI”, which “soluble on expression in E. coli” value is on record?
Answer: soluble

Question: For “SQDPYFKIANWTNEHDDFKKAEMRMDEKHRKKVDKVMKEWGDLETRYNEQKAKDPKGAEKFKSQMNARFQKTVSSLEEEHKRMRKEIEAVHEERVQAMLNEKKRDATHDYRQALATHVNKPNKHSVLQSLKAYIRAEEKDRMHTLNRYRHLLKADSKEAAAYKPTVIHRLRYIDLRINGTLAMLRDFPDLEKYVRPIAVTYWKDYRDEVSPDISVEDSELTPIIHDDEFSKNAKLDVKA”, which “soluble on expression in E. coli” value is on record?
Answer: soluble
